Results published in the supplement of paper PMC5998384.

How the values were obtained:
HeLa Kyoto [1] = test: thermal stability score vs G1/S (z-score of summed log2 fold changes over temperatures); higher = more thermally stable than in G1/S
HeLa Kyoto [2] = test: melting temperature (median over replicates), in situ; higher = more thermally stable
HeLa Kyoto [3] = test: solubility change mitosis vs G1/S (difference of NP-40 vs SDS log2 ratios) (log2 ratio difference); higher = more soluble in mitosis
HeLa Kyoto [4] = test: solubility in G1/S (NP-40 vs SDS abundance) (log2 ratio); higher = more soluble; conditions: cell cycle stage: G1/S
[5] = cell cycle stage: early G1 (4.5 h after nocodazole release)
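For melting temperature (median over replicates), in situ in this document: HeLa Kyoto cells synchronized by double thymidine or nocodazole block, proteins quantified by TMT10plex mass spectrometry, three independent biological replicates.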
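For solubility change mitosis vs G1/S (difference of NP-40 vs SDS log2 ratios) in this document: synchronized HeLa Kyoto cells (double thymidine block for G1/S, nocodazole release for mitosis), protein amounts in NP-40 versus SDS lysates quantified by mass spectrometry, three biological replicates.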
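For solubility in G1/S (NP-40 vs SDS abundance) in this document: HeLa Kyoto cells arrested at G1/S by double thymidine block, proteins quantified by TMT10plex mass spectrometry in mild NP-40 versus SDS extracts, three biological replicates.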
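For thermal stability score vs G1/S (z-score of summed log2 fold changes over temperatures) in this document: synchronized HeLa Kyoto cells, proteins quantified by TMT10plex mass spectrometry, three biological replicates, mitosis taken 0.5 h after nocodazole release, G1/S directly after double thymidine block.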

Sequence of AFG3L2 (chain, as listed by the source): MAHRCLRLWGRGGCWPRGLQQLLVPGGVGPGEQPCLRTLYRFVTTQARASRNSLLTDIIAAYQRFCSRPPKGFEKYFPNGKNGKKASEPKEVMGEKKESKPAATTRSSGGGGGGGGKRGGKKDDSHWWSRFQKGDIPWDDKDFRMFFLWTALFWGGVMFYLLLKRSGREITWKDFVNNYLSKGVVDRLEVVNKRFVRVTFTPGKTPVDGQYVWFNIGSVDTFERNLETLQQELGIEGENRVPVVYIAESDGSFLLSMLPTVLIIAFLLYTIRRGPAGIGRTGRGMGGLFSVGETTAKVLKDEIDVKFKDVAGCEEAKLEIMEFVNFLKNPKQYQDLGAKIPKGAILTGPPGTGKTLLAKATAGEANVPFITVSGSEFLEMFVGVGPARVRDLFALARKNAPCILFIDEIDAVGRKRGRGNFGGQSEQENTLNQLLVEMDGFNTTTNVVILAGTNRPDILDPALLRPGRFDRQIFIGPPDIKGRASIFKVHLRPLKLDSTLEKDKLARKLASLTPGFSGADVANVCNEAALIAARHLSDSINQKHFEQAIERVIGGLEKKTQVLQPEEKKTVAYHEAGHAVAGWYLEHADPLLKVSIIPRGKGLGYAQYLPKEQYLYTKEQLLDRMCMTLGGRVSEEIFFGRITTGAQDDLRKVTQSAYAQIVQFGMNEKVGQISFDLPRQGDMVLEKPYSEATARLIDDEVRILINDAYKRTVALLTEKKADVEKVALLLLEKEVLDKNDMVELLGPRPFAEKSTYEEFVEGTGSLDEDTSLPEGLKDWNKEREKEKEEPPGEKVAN

Substance	thermal stability score (HeLa Kyoto [1]; [5])	thermal stability score (HeLa Kyoto [1]; cell cycle stage: mitosis)	melting temperature (HeLa Kyoto [2]; cell cycle stage: G1/S)	melting temperature (HeLa Kyoto [2]; cell cycle stage: mitosis)	solubility change mitosis (log2) (HeLa Kyoto [3])	solubility in G1/S (log2) (HeLa Kyoto [4])
MDRSKENCISGPVKATAPVGGPKRVLVTQQFPCQNPLPVNSGQAQRVLCPSNSSQRIPLQAQKLVSSHKPVQNQKQKQLQATSVPHPVSRPLNNTQKSKQPLPSAPENNPEEELASKQKNEESKKRQWALEDFEIGRPLGKGKFGNVYLAREKQSKFILALKVLFKAQLEKAGVEHQLRREVEIQSHLRHPNILRLYGYFHDATRVYLILEYAPLGTVYRELQKLSKFDEQRTATYITELANALSYCHSKRVIHRDIKPENLLLGSAGELKIADFGWSVHAPSSRRTTLCGTLDYLPPEMIEGRMHDEKVDLWSLGVLCYEFLVGKPPFEANTYQETYKRISRVEFTFPDFVTEGARDLISRLLKHNPSQRPMLREVLEHPWITANSSKPSNCQNKESASKQS [AURKA]	-0.0408	-0.506	50 °C	50.8 °C	-0.0266	-0.00432
AFG3L2	2.84	0.443	51.8 °C	51.9 °C	-0.0792	0.107
MTLESMMACCLSDEVKESKRINAEIEKQLRRDKRDARRELKLLLLGTGESGKSTFIKQMRIIHGAGYSEEDKRGFTKLVYQNIFTAMQAMIRAMETLKILYKYEQNKANALLIREVDVEKVTTFEHQYVSAIKTLWEDPGIQECYDRRREYQLSDSAKYYLTDVDRIATLGYLPTQQDVLRVRVPTTGIIEYPFDLENIIFRMVDVGGQRSERRKWIHCFENVTSIMFLVALSEYDQVLVESDNENRMEESKALFRTIITYPWFQNSSVILFLNKKDLLEDKILYSHLVDYFPEFDGPQRDAQAAREFILKMFVDLNPDSDKIIYSHFTCATDTENIRFVFAAVKDTILQLNLKEYNLV [GNA11]	0.848	0.911	51.1 °C	50.6 °C	-0.121	-0.276
MKSNPAIQAAIDLTAGAAGGTACVLTGQPFDTMKVKMQTFPDLYRGLTDCCLKTYSQVGFRGFYKGTSPALIANIAENSVLFMCYGFCQQVVRKVAGLDKQAKLSDLQNAAAGSFASAFAALVLCPTELVKCRLQTMYEMETSGKIAKSQNTVWSVIKSILRKDGPLGFYHGLSSTLLREVPGYFFFFGGYELSRSFFASGRSKDELGPVPLMLSGGVGGICLWLAVYPVDCIKSRIQVLSMSGKQAGFIRTFINVVKNEGITALYSGLKPTMIRAFPANGALFLAYEYSRKLMMNQLEAY [SLC25A15]	-2.21	-1.66	58 °C	56.6 °C	-0.0497	0.00397
MAAVQMDPELAKRLFFEGATVVILNMPKGTEFGIDYNSWEVGPKFRGVKMIPPGIHFLHYSSVDKANPKEVGPRMGFFLSLHQRGLTVLRWSTLREEVDLSPAPESEVEAMRANLQELDQFLGPYPYATLKKWISLTNFISEATVEKLQPENRQICAFSDVLPVLSMKHTKDRVGQNLPRCGIECKSYQEGLARLPEMKPRAGTEIRFSELPTQMFPEGATPAEITKHSMDLSYALETVLNKQFPSSPQDVLGELQFAFVCFLLGNVYEAFEHWKRLLNLLCRSEAAMMKHHTLYINLISILYHQLGEIPADFFVDIVSQDNFLTSTLQVFFSSACSIAVDATLRKKAEKFQAHLTKKFRWDFAAEPEDCAPVVVELPEGIEMG [AAR2]	0.316	1.07	50.2 °C	50.4 °C	-0.266	0.0362
MGDREQLLQRARLAEQAERYDDMASAMKAVTELNEPLSNEDRNLLSVAYKNVVGARRSSWRVISSIEQKTMADGNEKKLEKVKAYREKIEKELETVCNDVLSLLDKFLIKNCNDFQYESKVFYLKMKGDYYRYLAEVASGEKKNSVVEASEAAYKEAFEISKEQMQPTHPIRLGLALNFSVFYYEIQNAPEQACLLAKQAFDDAIAELDTLNEDSYKDSTLIMQLLRDNLTLWTSDQQDEEAGEGN [YWHAH]	-1.65	-1.58	52.5 °C	52.6 °C	0.0669	0.565
MFSFEGDFKTRPKVSLGGASRKEEKASLLHRTQEERRKREEERRRLKNAIIIQSFIRGYRDRKQQYSIQRSAFDRCATLSQSGGAFPIANGPNLTLLVRQLLFFYKQNEDSKRLIWLYQNLIKHSSLFVKQLDGSERLTCLFQIKRLMSLCCRLLQNCNDDSLNVALPMRMLEVFSSENTYLPVLQDASYVVSVIEQILHYMIHNGYYRSLYLLINSKLPSSIEYSDLSRVPIAKILLENVLKPLHFTYNSCPEGARQQVFTAFTEEFLAAPFTDQIFHFIIPALADAQTVFPYEPFLNALLLIESRCSRKSGGAPWLFYFVLTVGENYLGALSEEGLLVYLRVLQTFLSQLPVSPASASCHDSASDSEEESEEADKPSSPEDGRLSVSYITEECLKKLDTKQQTNTLLNLVWRDSASEEVFTTMASVCHTLMVQHRMMVPKVRLLYSLAFNARFLRHLWFLISSMSTRMITGSMVPLLQVISRGSPMSFEDSSRIIPLFYLFSSLFSHSLISIHDNEFFGDPIEVVGQRQSSMMPFTLEELIMLSRCLRDACLGIIKLAYPETKPEVREEYITAFQSIGVTTSSEMQQCIQMEQKRWIQLFKVITNLVKMLKSRDTRRNFCPPNHWLSEQEDIKADKVTQLYVPASRHVWRFRRMGRIGPLQSTLDVGLESPPLSVSEERQLAVLTELPFVVPFEERVKIFQRLIYADKQEVQGDGPFLDGINVTIRRNYIYEDAYDKLSPENEPDLKKRIRVHLLNAHGLDEAGIDGGGIFREFLNELLKSGFNPNQGFFKTTNEGLLYPNPAAQMLVGDSFARHYYFLGRMLGKALYENMLVELPFAGFFLSKLLGTSADVDIHHLASLDPEVYKNLLFLKSYEDDVEELGLNFTVVNNDLGEAQVVELKFGGKDIPVTSANRIAYIHLVADYRLNRQIRQHCLAFRQGLANVVSLEWLRMFDQQEIQVLISGAQVPISLEDLKSFTNYSGGYSADHPVIKVFWRVVEGFTDEEKRKLLKFVTSCSRPPLLGFKELYPAFCIHNGGSDLERLPTASTCMNLLKLPEFYDETLLRSKLLYAIECAAGFELS [UBE3C]	0.499	0.996	50.3 °C	50.1 °C	-0.263	-0.181
MGCAPSIHVSQSGVIYCRDSDESSSPRQTTSVSQGPAAPLPGLFVQTDAADAIPPSRASGPPSVARVRRARTELGSGSSAGSAAPAATTSRGRRRHCCSSAEAETQTCYTSVKQVSSAEVRIGPMRLTQDPIQVLLIFAKEDSQSDGFWWACDRAGYRCNIARTPESALECFLDKHHEIIVIDHRQTQNFDAEAVCRSIRATNPSEHTVILAVVSRVSDDHEEASVLPLLHAGFNRRFMENSSIIACYNELIQIEHGEVRSQFKLRACNSVFTALDHCHEAIEITSDDHVIQYVNPAFERMMGYHKGELLGKELADLPKSDKNRADLLDTINTCIKKGKEWQGVYYARRKSGDSIQQHVKITPVIGQGGKIRHFVSLKKLCCTTDNNKQIHKIHRDSGDNSQTEPHSFRYKNRRKESIDVKSISSRGSDAPSLQNRRYPSMARIHSMTIEAPITKVINIINAAQENSPVTVAEALDRVLEILRTTELYSPQLGTKDEDPHTSDLVGGLMTDGLRRLSGNEYVFTKNVHQSHSHLAMPITINDVPPCISQLLDNEESWDFNIFELEAITHKRPLVYLGLKVFSRFGVCEFLNCSETTLRAWFQVIEANYHSSNAYHNSTHAADVLHATAFFLGKERVKGSLDQLDEVAALIAATVHDVDHPGRTNSFLCNAGSELAVLYNDTAVLESHHTALAFQLTVKDTKCNIFKNIDRNHYRTLRQAIIDMVLATEMTKHFEHVNKFVNSINKPMAAEIEGSDCECNPAGKNFPENQILIKRMMIKCADVANPCRPLDLCIEWAGRISEEYFAQTDEEKRQGLPVVMPVFDRNTCSIPKSQISFIDYFITDMFDAWDAFAHLPALMQHLADNYKHWKTLDDLKCKSLRLPSDS [PDE8B]	0.505	0.304	49 °C	49.1 °C	-0.122	-0.134
MASKRALVILAKGAEEMETVIPVDVMRRAGIKVTVAGLAGKDPVQCSRDVVICPDASLEDAKKEGPYDVVVLPGGNLGAQNLSESAAVKEILKEQENRKGLIAAICAGPTALLAHEIGFGSKVTTHPLAKDKMMNGGHYTYSENRVEKDGLILTSRGPGTSFEFALAIVEALNGKEVAAQVKAPLVLKD [PARK7]	1.01	-0.859	56.8 °C	57.4 °C	0.0696	0.529
MSNMEKHLFNLKFAAKELSRSAKKCDKEEKAEKAKIKKAIQKGNMEVARIHAENAIRQKNQAVNFLRMSARVDAVAARVQTAVTMGKVTKSMAGVVKSMDATLKTMNLEKISALMDKFEHQFETLDVQTQQMEDTMSSTTTLTTPQNQVDMLLQEMADEAGLDLNMELPQGQTGSVGTSVASAEQDELSQRLARLRDQV [CHMP1B]	0.0467	-0.997	51.8 °C	52.2 °C	0.158	0.304
